{
  "source": "patent US9481870B2",
  "about": "“Nucleic acid encoding a polypeptide having aminotransferase activity, vectors and host cells comprising the nucleic acid” (KANEKA CORPORATION, priority 2010, dated 2016)",
  "molecules": {"B1": {"name": "TPM: purified aminotransferase polypeptide from Pseudomonas sp. MV37, about 50,000 molecular weight, amino acid sequence SEQ ID NO: 1 (protein, listed as Pseudomonas sp.)", "chain": "MNHLEKMLELDRNHLIHPHLPKSEFSRTIFARGKGCKLWDTEGREYLDATGGLWLAQIGHGREEIAEVAARQMKQLEYFTCFWDFSNERAIELAEKLARLAPGDLEMSFFTSGGSEGDDAAIKTARYYHSQRGEPKRTWILSRNNAYHGLAYGGGTATGFPELRDGMGPGLPHVAYLTQPNAYRHYYFDGQNPTDFCVSELEKMIASIGAENIAAMIAEPIMGVGGMVPPPVDYWPRMSQVLKKNGILLIFDEVVSAFGRSGHWFAAEKYGVIPDIMVTAKGISSGYIPLGAVIMSRDVADTVREGHGYPLGYTYSGHPVACAVALENLRILEDEDLINRSNHMGTYIAEQLTALRDNPCVGEVRQAGMGIGIELVTDKESRQPLPDAALVIPDIIREETGVIVRISNATNLCMSPPLTMSREEADRAVEAVCSVLSRVKPDGKV"}},
  "key": {"[1]": {"assay": "Activity of purified TPM for 1-benzyl-3-pyrrolidinone and optical purity of product", "type": "biochemical", "conditions": "2 hours", "method": "The above properties can be determined by the following method. Specifically, a purified polypeptide is added to a substrate solution having the following composition so that it has a final concentration ranging from 0.1 mg/mL to 1 mg/mL for reaction at 30° C. Furthermore, the reaction is continued until 0.6 mM or more 1-benzyl-3-aminopyrrolidine (as determined by the following quantitative analysis) is generated. After the completion of the reaction, the optical purity of the 1-benzyl-3-aminopyrrolidine generated in the reaction solution is analyzed by HPLC under the following conditions. […]\n[High Performance Liquid Chromatography (HPLC) Analysis Conditions] • <Quantitative A> • Column: Finepak SIL C18-T (JASCO Corporation) • Eluent: distilled water 1260 mL/acetonitrile 740 mL/KH2 PO4 10 g/SDS 2.88 g (pH3.6) • Flow rate: 1 mL/minute • Detection: 254 nm • Column temperature: 40° C. […]\nA reaction solution was treated with an appropriate amount of sodium carbonate so that it became basic, derivatized with dinitrobenzoyl chloride, and then analyzed under the following conditions. • Column: Chiral pak IA (Daicel Corporation) • Eluent: hexane/ethanol/diethylamine/acetonitrile=800/200/1/5 (volume ratio) • Flow rate: 0.8 mL/minute • Detection: 254 nm"}, "[2]": {"assay": "Optimum pH of transamination activity", "type": "biochemical", "method": "The optimum pH for transamination is determined by the above activity assay A using combinations of the following buffers and pHs. […] When activity levels are different depending on buffer types, the activity level higher than the other is employed even if the pHs are the same. • pH4.0, 4.5, 5.0, 5.5: 0.1 M sodium acetate buffer • pH6.0, 6.5, 7.0, 7.5, 8.0: 0.1 M potassium phosphate buffer • pH7.5, 8.0, 8.5, 9.0: 0.1M Tris-hydrochloric acid buffer (Optimum Temperature)\n(§1) The transamination activity of purified TPM was examined under the following activity assay conditions. Specifically, purified TPM was added to a substrate solution with the composition given below to a total amount of 1 mL. After 5 minutes of reaction at 30° C., 0.05 mL of 6N hydrochloric acid was added to stop the reaction. HPLC analysis was conducted under the following conditions.\nTransamination activity was determined in a manner similar to the above at pHs ranging from 4.0 to 9.0 and then the optimum pH of TPM was examined.\nThe following buffers were used according to pH for determination.\n[Buffer] • pH4.0, 4.5, 5.0, or 5.5: 0.1 M sodium acetate buffer • pH6.0, 6.5, 7.0, 7.5, or 8.0: 0.1 M potassium phosphate buffer • pH7.5, 8.0, 8.5, or 9.0: 0.1 M tris-hydrochloric acid buffer • (3) Optimum Temperature: […]"}, "[3]": {"assay": "Optimum temperature of transamination activity", "type": "biochemical", "method": "as §1\nTransamination activity was determined at 10° C., 20° C., 30° C., 40° C., 50° C., 60° C., and 70° C. under the same conditions above."}, "[4]": {"assay": "Thermal stability (residual activity after 30 minutes heating)", "type": "physicochemical", "conditions": "for Residual activity: pH7.5, before heat treatment = 100", "method": "The thermal stability of the polypeptide is determined as follows.\nThe purified TPM was reacted for 30 minutes in 0.1 M potassium phosphate buffer (pH7.5) containing 0.5 mM pyridoxal phosphate at 30° C., 40° C., 50° C., 60° C., 70° C., and 80° C., and then activity assay was performed in a similar manner. As a result, 90% or more of the activity before heat treatment remained after treatment at 30° C. to 60° C."}, "[5]": {"assay": "Resistance to water-soluble organic solvent (residual activity)", "type": "physicochemical", "conditions": "2 hours, 30° C.", "method": "Resistance to a water-soluble organic solvent can be determined by the following method. Specifically, first, 800 uL of each water-soluble organic solvent is added to 200 uL of a 0.1 M aqueous potassium phosphate solution (pH7.5) supplemented with 0.5 mM PLP containing a purified polypeptide, so that the solvent is brought into contact with the solution at 30° C. for 2 hours. Subsequently, the resultant is diluted with a 0.1 M aqueous potassium phosphate solution supplemented with 0.5 mM PLP. Activity in the dilute solution is compared with the same in a purified polypeptide solution before addition of the solvent using the above activity assay A.\n• (5) Resistance to water-soluble organic solvent: 800 μL of 1-propanol, 2-propanol, or acetone was added to 200 μL of 0.1 M potassium phosphate buffer (pH7.5) containing 0.5 mM pyridoxal phosphate to which purified TPM had been added, followed by 2 hours of treatment at 30° C. After treatment, 0.1 M potassium phosphate buffer (pH7.5) containing 0.5 mM pyridoxal phosphate was diluted 20-fold, and then the activity of the diluted solution was determined under conditions similar to those above.\nThe resistance of commercially available Vibrio fluvialis-derived ω-Transaminase VF (Julich-Chemicals) to a water-soluble organic solvent was examined by a method similar to that for resistance to a water-soluble organic solvent in Example 9 (5)."}},
  "data": [
    {"molecule": "B1", "values": [
      {"measurement": "conversion rate", "setting": "[1]; (S)-1-phenethylamine 85.6 mM, 1-benzyl-3-pyrrolidinone 57.1 mM, pH 7.0, 30° C.", "result": 90, "unit": "%"},
      {"measurement": "optical purity", "setting": "[1]; generated (S)-1-benzyl-3-aminopyrrolidine, 30° C.", "result": 98.0, "unit": "% e.e."},
      {"measurement": "Relative activity", "setting": "[2]; 0.1M Potassium phosphate, pH 6.0, activity at pH7 = 100", "result": 86},
      {"measurement": "Relative activity", "setting": "[2]; 0.1M Potassium phosphate, pH 6.5, activity at pH7 = 100", "result": 94},
      {"measurement": "Relative activity", "setting": "[2]; 0.1M Potassium phosphate, pH 7.0, designated as 100", "result": 100},
      {"measurement": "Relative activity", "setting": "[2]; 0.1M Potassium phosphate, pH 7.5, activity at pH7 = 100", "result": 88},
      {"measurement": "Relative activity", "setting": "[2]; 0.1M Potassium phosphate, pH 8.0, activity at pH7 = 100", "result": 67},
      {"measurement": "Relative activity", "setting": "[2]; 0.1M Sodium acetate, pH 4.0, activity at pH7 = 100", "result": 7},
      {"measurement": "Relative activity", "setting": "[2]; 0.1M Sodium acetate, pH 4.5, activity at pH7 = 100", "result": 25},
      {"measurement": "Relative activity", "setting": "[2]; 0.1M Sodium acetate, pH 5.0, activity at pH7 = 100", "result": 57},
      {"measurement": "Relative activity", "setting": "[2]; 0.1M Sodium acetate, pH 5.5, activity at pH7 = 100", "result": 71},
      {"measurement": "Relative activity", "setting": "[2]; 0.1M Tris-hydrochloric acid, pH 7.5, activity at pH7 = 100", "result": 96},
      {"measurement": "Relative activity", "setting": "[2]; 0.1M Tris-hydrochloric acid, pH 8.0, activity at pH7 = 100", "result": 95},
      {"measurement": "Relative activity", "setting": "[2]; 0.1M Tris-hydrochloric acid, pH 8.5, activity at pH7 = 100", "result": 85},
      {"measurement": "Relative activity", "setting": "[2]; 0.1M Tris-hydrochloric acid, pH 9.0, activity at pH7 = 100", "result": 67},
      {"measurement": "optimum temperature", "setting": "[3]; 10° C. to 70° C. tested", "result": 60, "unit": "°C"},
      {"measurement": "Relative activity", "setting": "[3]; Reaction temperature 10° C., activity at 60° C. = 100", "result": 8},
      {"measurement": "Relative activity", "setting": "[3]; Reaction temperature 20° C., activity at 60° C. = 100", "result": 16},
      {"measurement": "Relative activity", "setting": "[3]; Reaction temperature 30° C., activity at 60° C. = 100", "result": 33},
      {"measurement": "Relative activity", "setting": "[3]; Reaction temperature 40° C., activity at 60° C. = 100", "result": 49},
      {"measurement": "Relative activity", "setting": "[3]; Reaction temperature 50° C., activity at 60° C. = 100", "result": 77},
      {"measurement": "Relative activity", "setting": "[3]; Reaction temperature 60° C., designated as 100", "result": 100},
      {"measurement": "Relative activity", "setting": "[3]; Reaction temperature 70° C., activity at 60° C. = 100", "result": 68},
      {"measurement": "activity remaining relative to before heat treatment", "setting": "[4]; after treatment at 30° C. to 60° C.", "result": "≥ 90", "unit": "%"},
      {"measurement": "Residual activity", "setting": "[4]; treatment 30° C.", "result": 108},
      {"measurement": "Residual activity", "setting": "[4]; treatment 40° C.", "result": 115},
      {"measurement": "Residual activity", "setting": "[4]; treatment 50° C.", "result": 120},
      {"measurement": "Residual activity", "setting": "[4]; treatment 60° C.", "result": 100},
      {"measurement": "Residual activity", "setting": "[4]; treatment 70° C.", "result": 12},
      {"measurement": "Residual activity rate (%)", "setting": "[5]; 1-Propanol 80% v/v", "result": 97, "unit": "%"},
      {"measurement": "Residual activity rate (%)", "setting": "[5]; 2-Propanol 80% v/v", "result": 100, "unit": "%"},
      {"measurement": "stability against 1-propanol, 2-propanol, and acetone", "setting": "[5]; 80% v/v solvent", "result": "extremely stable"},
      {"measurement": "Residual activity rate (%)", "setting": "[5]; Acetone 80% v/v", "result": 99, "unit": "%"}
    ]}
  ]
}
